# Measured values published in the nanobody polyreactivity screen of Harvey et al. (2022).
# Test: yeast display, Sf9 membrane polyspecificity reagent, FACS + sequencing; frameworks hold sequencing errors
# In short: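 Galactose-induced (36–48 hours) yeast carrying a synthetic nanobody display library were exposed to 10% biotinylated, detergent-solubilized Sf9 membrane reagent at 4 °C for 1 hour. FACS followed streptavidin microbead enrichment, using low and high (top ~1%) gates for expression (anti-HA) and reagent binding (streptavidin). Colony PCR, MiSeq 2 × 250 sequencing and CDR-length filtering followed. Labels for polyreactivity reflect the gate of origin.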
row,Sequence,polyreactivity (PSR sort gate)
1,QVQLVESGGGLVQAGGSLRLSCAASGSTFSSYAMGWYRQAPGKERELVARITSGDSTYYADSVKGRFTISRDNAKNTVYLQMNSLKPEDTAVYYCNAVAYGRTYDYWGQGTQVTVSS,high polyreactivity
2,QVQLVESGGGLVQAGGSLRLSCAASGSTFSSYVMGWYRQAPGKERELVAGITRGGRTYYADSVKGRFTISRDNAKNTVYLQMNSLKPEDTAVYYCNARDGVTTEFDYWGQGTQVTVSS,low polyreactivity
3,QVQLVESGGGLVQAGGSLRLSCAASGSTFSTYAMGWYRQAPGKERELVAAIRWSGGSTYYADSVKGRFTISRDNAKNTVYLQMNSLKPEDTAVYYCAKGIRRWYGGSDYWGQGTQVTVSS,low polyreactivity
4,QVQLVESGGGLVQAGGSLRLSCAASGSTFSTYAMGWYRQAPGKERELVAVITWRGGSTYYADSVKGRFTISRDNAKNTVYLQMNSLKPEDTAVYYCAAEGESPEYDYWGQGTQVTVSS,low polyreactivity
5,QVQLVESGGGLVQAGGSLRLSCAASGSTFSTYAMGWYRQAPGTERELVAASRWSGGSTYYADSVKGRFTISRDNAKNTVYLQMNSLKPEDTAVYYCAKGIRRWYGGSDYWGQGTQVTVSS,low polyreactivity
6,QVQLVESGGGLVQAGGSLRLSCAASGSTFSVNAMGWYRQAPGKERELVAAITYSGGSTYYADSVKGRFTISRDNAKNTVYLQMNSLKPEDTAVYYCAAEARYWIYEYDYWGQGTQVTVSS,high polyreactivity
7,QVQLVESGGGLVQAGGSLRLSCAASGSTFSVNPMGWYRQARVKERELVAAIDSGDSTYYADSVKGRFTISRDNAKNTVYLQMNSLKPEDTAVYYCATDVTFVYDLGYFQYDYWGQGTQVTVSS,low polyreactivity
8,QVQLVESGGGLVQAGGSLRLSCAASGSTFSVYAMGWYRQAPGKERELVAAISSGGTTNYADSVKGRFTISRDNAKNTVYLQMNSLKPEDTAVYYCAAEYDHYPYDYYWGQGTQVTVSS,low polyreactivity
9,QVQLVESGGGLVQAGGSLRLSCAASGSTFSYFAMGWYRQAPGKERELVAAISWNGGSTYYADSVKGRFTISRDNAKNTVYLQMNSLKPEDTAVYYCAAHPAYRDSWGEYDYWGQGTQVTVSS,low polyreactivity
10,QVQLVESGGGLVQAGGSLRLSCAASGSTFSYNAMGWYRQAPRKERELVAAISNTGSTYYADSVKGRFTISRDNAKNTVYLQMYSVKPEDSAVYYCAALWVHKRRQNSAHYDSWGQGTQVTVSS,low polyreactivity
11,QVQLVESGGGLVQAGGSLRLSCAASGSTFSYNAMGWYRQAPWKERELVAAISWNGDSTYADSVKGRFTISRDNAKNTVYLQMNSLKPEDTAVYYCAKDTIITPGRRKSPRYRHGYWGQGTQVTVSS,low polyreactivity
12,QVQLVESGGGLVQAGGSLRLSCAASGSTFSYNAMGWYRRAPGKERELVAAISWNGDSTYADSVKGRFTISRDNAKNTVYLQMNSLKPEDTAVYYCAKETIITPGRRKSPRYLHGYWGQGTQVTVSS,low polyreactivity
13,QVQLVESGGGLVQAGGSLRLSCAASGSTFSYYAMGSYRQAPGKERELVADISWSGGSTYYADSVKGRFTISRDNAKNTVYLQMNSLKPEDTAVYYCAARGYVRWYNRYDYWGQGTQVTVSS,low polyreactivity
14,QVQLVESGGGLVQAGGSLRLSCAASGSTFSYYAMGWYRQAPGKERELVAAISRSGGSTYYADSVKGRFTISRDNAKNTVYFQMNSMKPEDTAVYYCADRGQYRYSFGDYSWGQGTQVTVSS,high polyreactivity
15,QVQLVESGGGLVQAGGSLRLSCAASGSTFSYYAMGWYRQAPGKERELVAAITSSGGSTYYADSVKGRFTISRDNAKNTVYLQMNSLKPEDTAVYYCNTAYHVPYDYWGQGTQVTVSS,low polyreactivity
16,QVQLVESGGGLVQAGGSLRLSCAASGSTFSYYAMGWYRQAPGKESELVAAISRTAVSTYYADSVKGRFTISRDNAKNTVYLQMYSLKPEDTAVYYCAASHYHGYSLGYDYWGQGTQVTVSS,high polyreactivity
17,QVQLVESGGGLVQAGGSLRLSCAASGSTFSYYDMGWYRQAPGKERELVAAISWNGGTTYYADSVKGRFTISRDNAKNTVYLQMNSLKPEDTAVYYCAATWDFYWAPDDSWGQGTQVTVSS,low polyreactivity
18,QVQLVESGGGLVQAGGSLRLSCAASGSTFSYYRMGWYRQATGTERELVASIDYSGESTYYADSVKGRFTISLDNAKNTVYLQMNSLNPEDTAVYYCAADDYPWNRYEYWGQGTQVTVSS,low polyreactivity
19,QVQLVESGGGLVQAGGSLRLSCAASGSTFTANAMGWYRQAPGKERELVAAITNSDGSTYYADSVKGRFTISRDNAKNTVYLQMNSLKPEETAVYYCAKDYYACYWEMDYWGLGTQVTVSS,low polyreactivity
20,QVQLVESGGGLVQAGGSLRLSCAASGSTFTAYAMGWYRQAPGKERELVAAINWSGGTTYYADSVKGRFTISRDNAKNTVYLQMNSLKPEDTAVYSCAVDGNFFGEVRPYDYWGQGTQVTVSS,low polyreactivity
21,QVQLVESGGGLVQAGGSLRLSCAASGSTFTAYAMGWYRQAPGKERELVADISDSGGSTYYADSVKGRFTISRDNAKNTVYLQMNSLKPEDTAVYYCAAAWVFKKGFGTEMDYWGQGTQVTVSS,low polyreactivity
22,QVQLVESGGGLVQAGGSLRLSCAASGSTFTAYVMGWYRQAPGKERELVAAISRSGGRTYYADSVKGRFTISRDNAKNTVYLQMNSLKPEDTAVYYCAARSGPLAYDYWGQGTQVTVSS,high polyreactivity

row,Sequence,polyreactivity (PSR sort gate)
1,QVQLVESGGGLVQAGGSLRLSCAASGSTFTCYAMGWNRQAPRKERELVADITWRDGSTYYADSVKGRFTISRDNAKNTVYLQMNSLKPEDTAVYYCNGRRDYDMDWGQVTQVTVSS,high polyreactivity
2,QVQLVESGGGLVQAGGSLRLSCAASGSTFTDYDMGWYRQAPGKERELVAAITSGGSTNYADSVKGRFTISRDNAKNTVYLQMNSLKPEDTAVYYCKVRPYGFDSEFDYWGQGTQVTVSS,low polyreactivity
3,QVQLVESGGGLVQAGGSLRLSCAASGSTFTEYAMGWYRQAPGKERELVAGISSDGSTKYADSVKGRFTISRDNAKNTVYLQMNSLKPEDTAVYYCNKDQSYAKYDYWGQGTQVTVSS,low polyreactivity
4,QVQLVESGGGLVQAGGSLRLSCAASGSTFTFYTMGWYRQAPGKERELVAAITISAGSTYYADSVKGRFTFSRDNAKNTVYLQMNSLKPEDSAVYYCAADTYAHWGYYGSYYRDDYWGQGTQVTVSS,low polyreactivity
5,QVQLVESGGGLVQAGGSLRLSCAASGSTFTGYALGWYRQAPGKEREFVATITKRGGRTYYADSVKGRFTISRDNAKNTVYLQMHSLKPEDTAVYYCARDQGKLVVPYDYWGQGTQVTVSS,high polyreactivity
6,QVQLVESGGGLVQAGGSLRLSCAASGSTFTGYAMGWYRQAPGKERELVAAISRSGGSTSYADSVKGRFTISRDNAKNTVYLQMNSLKPEDTAVDYCAAQVQGTTRAKQRGGIGELDYWGQGTQVTVSS,low polyreactivity
7,QVQLVESGGGLVQAGGSLRLSCAASGSTFTGYTMGWYRQAPGKERELVASIRTYYADSVKGRFTISRDNAKNTVYLQMNSLKPEDTAVYYCAAKPGRYADYDYNSWGQGTQVTVSS,low polyreactivity
8,QVQLVESGGGLVQAGGSLRLSCAASGSTFTINAKGWYRQATGKETELVAAITDSAGNTYYADSVKGRFTISRDNAKNTVYLQMNSLKPEDTAVYYCAAAWPSTGLLYVLGYSGYGYWGQGTQVTVSS,low polyreactivity
9,QVQLVESGGGLVQAGGSLRLSCAASGSTFTINAMGWYRQAPGKERELVAAISRSGGSTFYADSVKGRFTISRDNAKNTVYLQMNSLKPEDTAVYYCAAGYRGTAYRYGYCGQGTQVTVSS,high polyreactivity
10,QVQLVESGGGLVQAGGSLRLSCAASGSTFTLYAKGWYRQAPGKERELVAAINGAGSTYYADSVKGRFTISRDNAKNTVYLQMNSLKPEDTAVYYCAKDLQYGWYDYWGQGTQVTVSS,low polyreactivity
11,QVQLVESGGGLVQAGGSLRLSCAASGSTFTLYVMGWYRQAPGKERELVAAISSNGGRTYYADSVKGRFTISRDNAKNTVYLQMNSLKPEDTAVYYCAAGKIGRYHYDYWGQGTQVTVSS,high polyreactivity
12,QVQLVESGGGLVQAGGSLRLSCAASGSTFTLYVMGWYRQATGKERELVAAISSNGGRTYYADSVKGRFTISRDNAKNTVYLQMTSLKPEDTAVYYCAKLVSLAGRIYGYWGQGTQVTVSS,high polyreactivity
13,QVQLVESGGGLVQAGGSLRLSCAASGSTFTNYAMGWYRQAPRKERELVAAITSVGSTYYADSVKGRFTISRDNAKNTVYLQMNSLKQEDTAVYYCNVVYRDQYNYWGQGTQVTVSS,low polyreactivity
14,QVQLVESGGGLVQAGGSLRLSCAASGSTFTPNAMGWYRQVPGKERELVASITIGGSTYADSVKGRFTISRDNAKNTVYLQMNSLKPEDTAVYYCNADWNWYPFLYSRMDYWGQGTQVTVSS,low polyreactivity
15,QVQLVESGGGLVQAGGSLRLSCAASGSTFTPYAMGWSRKAPGKERELVAVIRWRGGRTYYADSVQGRFTISRDNAKNTVYLQMNSLKPEDTAVYYCAAGGSQGAGGYGYYGYDYWGQGTQETVSS,low polyreactivity
16,QVQLVESGGGLVQAGGSLRLSCAASGSTFTPYAMGWYRPAPGKEREFVAAITSIGGSTYYADSVKGRFTISRDHAKFTVYLQMNSLKPEDTAVYYCAADYYEWSLWNDYWGQGTQVTVSS,high polyreactivity
17,QVQLVESGGGLVQAGGSLRLSCAASGSTFTPYAMGWYRPAPGKERELVATISSRGGSTSYADSVKGRFTISRDNAKNTVYLQMNSLKPEDTAVYYCARKVRRVARIMYYWGQGTQVTVSS,high polyreactivity
18,QVQLVESGGGLVQAGGSLRLSCAASGSTFTPYAMGWYRQAPGKERELVAAINGGGTRTYYADSVKGRFTISRDNAKNTVYLQMNSLKPEDTAVYYCAARTSTSRSYPYNYWGQGTQVTVSS,high polyreactivity
19,QVQLVESGGGLVQAGGSLRLSCAASGSTFTPYGMGWYRKAPGKERELVAAITVSGGRTYDADSVKGRFTISRDNAKNTVYLQMNSLKPEDTAVYYCAAVYLRGDGEYDYWGQGTQVTVSS,low polyreactivity
20,QVQLVESGGGLVQAGGSLRLSCAASGSTFTRNAKGWYRQAPGKERELVAAITSSGSRTYYADSVKGRFTISRDNAKNTVYLQMNRLKPEDTAVYYCAGLGDTRYVAMDHWGQGTQVTVSS,high polyreactivity
21,QVQLVESGGGLVQAGGSLRLSCAASGSTFTRNAMGWYRQAPGKERELVAAISSRGTSTYYADSVKGRFTISRDNAKNTVYLQMNSLKPEDTAVYYCAAVGVKQYLGGNPFDYWGQGTQVTVSS,high polyreactivity
